Assay results reported in patent US20170334954A1.
Each block holds one substance with its values, some of them ahead of it.

Experiments:
[1] = target: human polyclonal IgG (Gammanorm) (human); assay: column 10% breakthrough capacity, ligand on agarose beads, ligand content 7.0 mg/ml, 6 min residence time; before NaOH
[2] = target: human polyclonal IgG (Gammanorm) (human); assay: column 10% breakthrough capacity, ligand on agarose beads, ligand content 7.0 mg/ml; after 24 h in 0.5 M NaOH
[3] = target: human polyclonal IgG (Gammanorm) (human); assay: column 10% breakthrough capacity, ligand content […]; 0.5 M NaOH; ratio to reference Zvar4
[4] = target: human polyclonal IgG (Gammanorm) (human); assay: column 10% breakthrough capacity, ligand on agarose beads, ligand content […]; after 24 h in 0.5 M NaOH
[5] = target: human polyclonal IgG (Gammanorm) (human); assay: column 10% breakthrough capacity, ligand on agarose beads, ligand content […], 6 min residence time; before NaOH
[6] = target: human polyclonal IgG (Gammanorm) (human); assay: column 10% breakthrough capacity, ligand content 7.0 mg/ml; 0.5 M NaOH; ratio to reference Zvar4
[7] = target: human polyclonal IgG (Gammanorm) (human); assay: column 10% breakthrough capacity, ligand on agarose beads, ligand content 10.8 mg/ml; after 24 h in 0.5 M NaOH
[8] = target: human polyclonal IgG (Gammanorm) (human); assay: column 10% breakthrough capacity, ligand on agarose beads, ligand content 10.8 mg/ml, 6 min residence time; before NaOH
[9] = target: human polyclonal IgG (Gammanorm) (human); assay: column 10% breakthrough capacity, ligand content 10.8 mg/ml; 0.5 M NaOH; ratio to reference Zvar4
[10] = target: human polyclonal IgG (Gammanorm) (human); assay: column 10% breakthrough capacity, ligand on agarose beads, ligand content […], 6 min residence time; before NaOH; remark: listed apart in the source
[11] = target: human polyclonal IgG (Gammanorm) (human); assay: column 10% breakthrough capacity, ligand on agarose beads, ligand content 7.2 mg/ml; after 24 h in 0.5 M NaOH
[12] = target: human polyclonal IgG (Gammanorm) (human); assay: column 10% breakthrough capacity, ligand on agarose beads, ligand content 7.2 mg/ml, 6 min residence time; before NaOH
[13] = target: human polyclonal IgG (Gammanorm) (human); assay: column 10% breakthrough capacity, ligand on agarose beads, ligand content […]; after six 4 h cycles in 1.0 M NaOH
[14] = target: human polyclonal IgG (Gammanorm) (human); assay: column 10% breakthrough capacity, ligand content 7.2 mg/ml; 0.5 M NaOH; ratio to reference Zvar4
[15] = target: human polyclonal IgG (Gammanorm) (human); assay: column 10% breakthrough capacity, ligand content […]; 1.0 M NaOH; ratio to reference Zvar4
[16] = target: human polyclonal IgG (Gammanorm) (human); assay: column 10% breakthrough capacity, ligand content 9.7 mg/ml; 1.0 M NaOH; ratio to reference Zvar4
[17] = target: human polyclonal IgG (Gammanorm) (human); assay: column 10% breakthrough capacity, ligand on agarose beads, ligand content 9.7 mg/ml; after 24 h in 0.5 M NaOH
[18] = target: human polyclonal IgG (Gammanorm) (human); assay: column 10% breakthrough capacity, ligand on agarose beads, ligand content 9.7 mg/ml, 6 min residence time; before NaOH
[19] = target: human polyclonal IgG (Gammanorm) (human); assay: as above; remark: listed apart in the source
[20] = target: human polyclonal IgG (Gammanorm) (human); assay: column 10% breakthrough capacity, ligand on agarose beads, ligand content 9.7 mg/ml; after six 4 h cycles in 1.0 M NaOH
[21] = target: human polyclonal IgG (Gammanorm) (human); assay: column 10% breakthrough capacity, ligand content 9.7 mg/ml; 0.5 M NaOH; ratio to reference Zvar4

- Initial IgG capacity Qb10 [1]: 49.1 mg/mL
- Remaining IgG capacity Qb10 after six 4 h cycles [2]: 44.1 mg/mL
- Remaining IgG capacity after six 4 h cycles (%) [2]: 90%
- Capacity retention relative to ref. after six 4 h cycles [3]: 1.31
- Remaining IgG capacity Qb10 after six 4 h cycles [4]: 46.2 mg/mL
- Remaining IgG capacity after six 4 h cycles (%) [4]: 93%
- Initial IgG capacity Qb10 [5]: 50 mg/mL
- Capacity retention relative to ref. after six 4 h cycles [6]: 1.5
Substance: Zvar(Q9A, N11E, N28A, N43A)4 with an additional N-terminal cysteine (agarose bead ligand) (designed binder)

- Remaining IgG capacity Qb10 after six 4 h cycles [7]: 52.5 mg/mL
- Remaining IgG capacity after six 4 h cycles (%) [7]: 92%
- Initial IgG capacity Qb10 [8]: 56.9 mg/mL
- Capacity retention relative to ref. after six 4 h cycles [9]: 1.3
Substance: Zvar(Q9A, N11K, H18K, D37E, A42R)4 with an additional N-terminal cysteine (agarose bead ligand) (designed binder)

- Initial IgG capacity Qb10 [10]: 60.3 mg/mL
- Remaining IgG capacity Qb10 after six 4 h cycles [11]: 44.2 mg/mL
- Remaining IgG capacity after six 4 h cycles (%) [11]: 90%
- Initial IgG capacity Qb10 [12]: 49 mg/mL
- Capacity retention relative to ref. after six 4 h cycles [3]: 1.34
- Remaining IgG capacity Qb10 after six 4 h cycles [4]: 53.6 mg/mL
- Remaining IgG capacity after six 4 h cycles (%) [4]: 95%
- Remaining IgG capacity Qb10 after six 4 h cycles [13]: 56 mg/mL
- Remaining IgG capacity after six 4 h cycles (%) [13]: 93%
- Capacity retention relative to ref. after six 4 h cycles [14]: 1.5
- Capacity retention relative to ref. after six 4 h cycles [15]: 1.67
- Initial IgG capacity Qb10 [5]: 56.3 mg/mL
Substance: Zvar(Q9A, N11E, Q40V, A42K, N43A, L44I)4 with an additional N-terminal cysteine (agarose bead ligand) (designed binder)

- Capacity retention relative to ref. after six 4 h cycles [16]: 1.44
- Remaining IgG capacity Qb10 after six 4 h cycles [17]: 52 mg/mL
- Remaining IgG capacity after six 4 h cycles (%) [17]: 92%
- Initial IgG capacity Qb10 [18]: 56.3 mg/mL
- Initial IgG capacity Qb10 [19]: 62.1 mg/mL
- Remaining IgG capacity Qb10 after six 4 h cycles [20]: 48.1 mg/mL
- Remaining IgG capacity after six 4 h cycles (%) [20]: 77%
- Capacity retention relative to ref. after six 4 h cycles [21]: 1.53
Substance: Zvar(N11K, H18K, S33K, D37E, A42R, N43A, L44I, K50R, L51Y)4 with an additional N-terminal cysteine (agarose bead ligand) (designed binder)
